Legend:
[1] = target: HIV-1 Env of pseudovirus isolate MGRM-G-016 (HIV-1); assay: cell-based or functional assay
[2] = target: HIV-1 Env of isolate MGRM-C-007 (HIV-1); assay: cell-based or functional assay
[3] = target: HIV-1 JRCSF Env (pseudovirus) (HIV-1) (UniProt P20871); assay: cell-based or functional assay
[4] = target: HIV-1 MGRM-C-027 Env (pseudovirus) (HIV-1); assay: cell-based or functional assay
[5] = target: HIV-1 Env of pseudovirus isolate MGRM-G-014 (HIV-1); assay: cell-based or functional assay
[6] = target: HIV-1 92UG005 Env (pseudovirus) (HIV-1); assay: cell-based or functional assay
[7] = target: HIV-1 Env of pseudovirus isolate MGRM-G-004 (HIV-1); assay: cell-based or functional assay
[8] = target: HIV-1 Env of isolate MGRM-C-009 (HIV-1); assay: cell-based or functional assay
[9] = target: HIV-1 Env of isolate MGRM-C-010 (HIV-1); assay: cell-based or functional assay
[10] = target: HIV-1 93IN905 Env (pseudovirus) (HIV-1); assay: cell-based or functional assay
[11] = target: HIV-1 Env of isolate MGRM-C-020 (HIV-1); assay: cell-based or functional assay
[12] = target: HIV-1 Env of isolate MGRM-C-012 (HIV-1); assay: cell-based or functional assay
[13] = target: HIV-1 Env of isolate MGRM-C-013 (HIV-1); assay: cell-based or functional assay
[14] = target: HIV-1 Env of isolate MGRM-C-005 (HIV-1); assay: cell-based or functional assay
[15] = target: HIV-1 Env of isolate MGRM-C-001 (HIV-1); assay: cell-based or functional assay
[16] = target: HIV-1 Env of isolate MGRM-C-008 (HIV-1); assay: cell-based or functional assay
[17] = target: HIV-1 Env of pseudovirus isolate MGRM-G-006 (HIV-1); assay: cell-based or functional assay
[18] = target: HIV-1 Env of isolate MGRM-C-015 (HIV-1); assay: cell-based or functional assay
[19] = target: HIV-1 MGRM-D-018 Env (pseudovirus) (HIV-1); assay: cell-based or functional assay
[20] = target: HIV-1 Env of pseudovirus isolate MGRM-G-027 (HIV-1); assay: cell-based or functional assay
[21] = target: HIV-1 MGRM-A-010 Env (pseudovirus) (HIV-1); assay: cell-based or functional assay
[22] = target: envelope of aMLV pseudovirus (negative control); assay: cell-based or functional assay
[23] = target: HIV-1 MGRM-C-028 Env (pseudovirus) (HIV-1); assay: cell-based or functional assay
[24] = target: HIV-1 92TH021 Env (pseudovirus) (HIV-1); assay: cell-based or functional assay
[25] = target: HIV-1 Env of pseudovirus isolate MGRM-G-009 (HIV-1); assay: cell-based or functional assay
[26] = target: HIV-1 Env of pseudovirus isolate MGRM-G-019 (HIV-1); assay: cell-based or functional assay
[27] = target: HIV-1 NL43 Env (pseudovirus) (HIV-1); assay: cell-based or functional assay
[28] = target: HIV-1 CMU02 Env (pseudovirus) (HIV-1); assay: cell-based or functional assay
[29] = target: HIV-1 Env of isolate MGRM-C-006 (HIV-1); assay: cell-based or functional assay
[30] = target: HIV-1 92UG024 Env (pseudovirus) (HIV-1); assay: cell-based or functional assay
[31] = target: HIV-1 Env of pseudovirus isolate MGRM-G-011 (HIV-1); assay: cell-based or functional assay
[32] = target: HIV-1 Env of isolate MGRM-C-014 (HIV-1); assay: cell-based or functional assay
[33] = target: HIV-1 Env of isolate MGRM-C-004 (HIV-1); assay: cell-based or functional assay
[34] = target: HIV-1 94UG103 Env (pseudovirus) (HIV-1); assay: cell-based or functional assay
[35] = target: HIV-1 Env of pseudovirus isolate MGRM-G-017 (HIV-1); assay: cell-based or functional assay
[36] = target: HIV-1 Env of isolate MGRM-C-019 (HIV-1); assay: cell-based or functional assay
[37] = target: HIV-1 Env of pseudovirus isolate MGRM-G-015 (HIV-1); assay: cell-based or functional assay
[38] = target: HIV-1 Env of pseudovirus isolate MGRM-G-001 (HIV-1); assay: cell-based or functional assay
[39] = target: HIV-1 Env of isolate MGRM-C-023 (HIV-1); assay: cell-based or functional assay
[40] = target: HIV-1 APV6 Env (pseudovirus) (HIV-1); assay: cell-based or functional assay
[41] = target: HIV-1 MGRM-C-026 Env (pseudovirus) (HIV-1); assay: cell-based or functional assay
[42] = target: HIV-1 Env of isolate MGRM-C-025 (HIV-1); assay: cell-based or functional assay
[43] = target: HIV-1 Env of isolate MGRM-C-002 (HIV-1); assay: cell-based or functional assay
[44] = target: HIV-1 Env of isolate MGRM-C-017 (HIV-1); assay: cell-based or functional assay
[45] = target: HIV-1 Env of isolate MGRM-C-024 (HIV-1); assay: cell-based or functional assay
[46] = target: HIV-1 92RW020 Env (pseudovirus) (HIV-1); assay: cell-based or functional assay
[47] = target: HIV-1 Env of pseudovirus isolate MGRM-G-013 (HIV-1); assay: cell-based or functional assay
[48] = target: HIV-1 Env of isolate MGRM-C-022 (HIV-1); assay: cell-based or functional assay
WT JR-FL gp120 (HIV-1) = assay: ELISA, antigen-coated wells

5141_B17 (PGT-126) (antibody) gave an IC50 (µg/mL), pseudovirus neutralization [1] greater than 50 µg/mL, a neutralization IC50 [2] of 25.3 µg/mL and a neutralization IC50 (pseudovirus) [3] of 0.0061 µg/mL. It also gave a neutralization IC50 (pseudovirus) [4] of 1.14 µg/mL, an IC50 (µg/mL), pseudovirus neutralization [5] of 0.009 µg/mL and a neutralization IC50 (pseudovirus) [6] of 0.0181 µg/mL. It also gave an IC50 (µg/mL), pseudovirus neutralization [7] greater than 50 µg/mL, a neutralization IC50 [8] greater than 50 µg/mL and a neutralization IC50 [9] greater than 50 µg/mL. The neutralization IC50 (pseudovirus) [10] was 0.0194 µg/mL, the neutralization IC50 [11] was greater than 50 µg/mL and the neutralization IC50 [12] was 0.111 µg/mL. The neutralization IC50 [13] was greater than 50 µg/mL, the neutralization IC50 [14] was 0.298 µg/mL and the neutralization IC50 [15] was greater than 50 µg/mL. It also gave a neutralization IC50 [16] of 2.12 µg/mL, an IC50 (µg/mL), pseudovirus neutralization [17] greater than 50 µg/mL and a neutralization IC50 [18] of 3.14 µg/mL. It also gave a neutralization IC50 (pseudovirus) [19] of 0.0093 µg/mL, an IC50 (µg/mL), pseudovirus neutralization [20] of 0.875 µg/mL and a neutralization IC50 (pseudovirus) [21] of 0.0033 µg/mL. It also gave an IC50 (µg/mL), pseudovirus neutralization [22] greater than 50 µg/mL, a neutralization IC50 (pseudovirus) [23] of 0.283 µg/mL and a neutralization IC50 (pseudovirus) [24] of 0.115 µg/mL. The IC50 (µg/mL), pseudovirus neutralization [25] was greater than 50 µg/mL, the IC50 (µg/mL), pseudovirus neutralization [26] was 0.018 µg/mL and the neutralization IC50 (pseudovirus) [27] was greater than 10 µg/mL. For the same substance, the neutralization IC50 (pseudovirus) [28] was greater than 10 µg/mL, the neutralization IC50 [29] was 0.014 µg/mL and the neutralization IC50 (pseudovirus) [30] was greater than 10 µg/mL. For the same substance, the IC50 (µg/mL), pseudovirus neutralization [31] was 7.32 µg/mL, the neutralization IC50 [32] was greater than 50 µg/mL and the neutralization IC50 [33] was 0.033 µg/mL. It also gave a neutralization IC50 (pseudovirus) [34] of 0.0091 µg/mL, an IC50 (µg/mL), pseudovirus neutralization [35] greater than 50 µg/mL and a neutralization IC50 [36] of 0.006 µg/mL. For the same substance, the IC50 (µg/mL), pseudovirus neutralization [37] was greater than 50 µg/mL, the IC50 (µg/mL), pseudovirus neutralization [38] was 0.038 µg/mL and the neutralization IC50 [39] was 0.065 µg/mL. The neutralization IC50 (pseudovirus) [40] was 0.0249 µg/mL, the neutralization IC50 (pseudovirus) [41] was 0.0076 µg/mL and the neutralization IC50 [42] was 0.786 µg/mL. For the same substance, the neutralization IC50 [43] was 0.011 µg/mL, the neutralization IC50 [44] was 0.17 µg/mL and the neutralization IC50 [45] was greater than 50 µg/mL. The neutralization IC50 (pseudovirus) [46] was 0.0046 µg/mL, the IC50 (µg/mL), pseudovirus neutralization [47] was 48.8 µg/mL and the neutralization IC50 [48] was 0.96 µg/mL. For the same substance, the EC50 (WT JR-FL gp120 (HIV-1)) was 0.1 µg/mL.

Reference: patent US20250320281A1
